Values quoted from earlier work, collected in paper PMC3585250.

Target: integrin αvβ3 (Homo sapiens) (UniProt P06756)
UniProt P06756, sequence (P06756 31-1048, chain 1 of 2): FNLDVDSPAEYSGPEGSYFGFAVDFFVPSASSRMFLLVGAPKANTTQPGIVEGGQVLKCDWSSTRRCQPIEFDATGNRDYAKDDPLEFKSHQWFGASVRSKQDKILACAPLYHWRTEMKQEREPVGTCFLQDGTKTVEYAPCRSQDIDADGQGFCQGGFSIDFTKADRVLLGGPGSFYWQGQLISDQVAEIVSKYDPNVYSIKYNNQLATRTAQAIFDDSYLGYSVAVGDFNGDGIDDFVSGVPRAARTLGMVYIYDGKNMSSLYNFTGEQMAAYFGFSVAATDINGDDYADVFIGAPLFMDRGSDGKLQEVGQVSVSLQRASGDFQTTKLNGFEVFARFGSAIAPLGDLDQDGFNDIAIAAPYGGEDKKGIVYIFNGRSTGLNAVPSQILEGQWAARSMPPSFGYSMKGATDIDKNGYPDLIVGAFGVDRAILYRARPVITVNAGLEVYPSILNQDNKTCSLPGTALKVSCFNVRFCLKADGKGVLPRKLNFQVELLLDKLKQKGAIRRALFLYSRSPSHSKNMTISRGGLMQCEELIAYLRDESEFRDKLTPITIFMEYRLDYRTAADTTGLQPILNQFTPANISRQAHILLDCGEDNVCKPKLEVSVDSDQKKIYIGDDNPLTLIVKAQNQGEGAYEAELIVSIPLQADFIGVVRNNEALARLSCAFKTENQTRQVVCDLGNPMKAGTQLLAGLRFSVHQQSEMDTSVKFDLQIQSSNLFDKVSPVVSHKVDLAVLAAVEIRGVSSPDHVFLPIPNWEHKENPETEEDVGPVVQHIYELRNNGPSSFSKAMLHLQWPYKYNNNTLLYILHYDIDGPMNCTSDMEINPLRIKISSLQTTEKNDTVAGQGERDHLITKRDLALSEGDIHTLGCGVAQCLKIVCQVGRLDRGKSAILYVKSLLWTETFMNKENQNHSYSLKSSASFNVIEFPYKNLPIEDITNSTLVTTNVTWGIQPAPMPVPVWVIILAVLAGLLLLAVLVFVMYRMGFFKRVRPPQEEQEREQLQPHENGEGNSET
UniProt P06756, sequence (P05106 27-788, chain 2 of 2, further chain): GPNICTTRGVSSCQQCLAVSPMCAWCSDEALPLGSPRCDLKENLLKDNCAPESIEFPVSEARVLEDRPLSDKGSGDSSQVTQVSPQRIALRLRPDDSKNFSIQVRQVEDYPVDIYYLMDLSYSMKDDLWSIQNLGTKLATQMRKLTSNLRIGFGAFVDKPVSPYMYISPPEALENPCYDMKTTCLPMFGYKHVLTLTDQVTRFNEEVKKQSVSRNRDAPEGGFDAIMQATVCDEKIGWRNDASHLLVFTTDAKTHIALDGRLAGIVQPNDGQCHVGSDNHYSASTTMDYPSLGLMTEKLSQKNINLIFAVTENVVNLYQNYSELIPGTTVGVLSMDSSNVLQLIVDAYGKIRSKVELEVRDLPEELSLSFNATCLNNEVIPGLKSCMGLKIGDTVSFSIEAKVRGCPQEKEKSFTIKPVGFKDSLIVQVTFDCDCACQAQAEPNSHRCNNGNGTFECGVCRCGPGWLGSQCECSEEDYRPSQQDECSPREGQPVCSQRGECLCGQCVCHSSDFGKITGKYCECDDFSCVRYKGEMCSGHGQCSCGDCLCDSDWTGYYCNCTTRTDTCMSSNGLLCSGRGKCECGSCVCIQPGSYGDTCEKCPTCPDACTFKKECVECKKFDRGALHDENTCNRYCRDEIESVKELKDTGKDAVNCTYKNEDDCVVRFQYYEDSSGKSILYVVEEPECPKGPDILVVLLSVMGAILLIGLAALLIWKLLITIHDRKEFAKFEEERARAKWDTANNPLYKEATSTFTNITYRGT

Kd: 1000 nM
Substance: FGF1 (from UniProt P05230)
